Reference: patent publication US20190256610A1 (NATIONAL UNIVERSITY CORPORATION HOKKAIDO UNIVERSITY, published 2019)
Each block holds one binder with its values, some of them ahead of it.

Key:
human Eva1 Y30A mutant = biological target: T1, human Eva1 Y30A mutant (human, UniProt O60487 27-150, limits assumed); test: SPR
T1 chain: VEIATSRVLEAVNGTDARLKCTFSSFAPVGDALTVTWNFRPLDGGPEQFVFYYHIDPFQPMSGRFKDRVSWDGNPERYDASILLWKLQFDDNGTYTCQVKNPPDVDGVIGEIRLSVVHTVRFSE

[1] = biological target: T2, human Eva1 mutant with glutamic acid at position 102 substituted with alanine (human, UniProt O60487 27-150, limits assumed); test: SPR with alanine mutants
T2 construct: also called E102A
T2 chain: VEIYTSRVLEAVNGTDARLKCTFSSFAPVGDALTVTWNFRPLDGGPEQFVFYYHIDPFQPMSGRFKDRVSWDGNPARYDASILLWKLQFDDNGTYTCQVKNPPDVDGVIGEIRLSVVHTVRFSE

[2] = biological target: T3, human Eva1 mutant with arginine at position 103 substituted with alanine (human, UniProt O60487 27-150, limits assumed); test: SPR with alanine mutants
T3 construct: also called R103A
T3 chain: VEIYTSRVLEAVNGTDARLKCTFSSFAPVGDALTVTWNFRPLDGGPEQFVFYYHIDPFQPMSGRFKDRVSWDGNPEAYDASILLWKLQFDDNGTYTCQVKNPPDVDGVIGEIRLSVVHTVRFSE

human Eva1 S96A mutant = biological target: T4, human Eva1 S96A mutant (human, UniProt O60487 27-150, limits assumed); test: SPR with alanine mutants
T4 chain: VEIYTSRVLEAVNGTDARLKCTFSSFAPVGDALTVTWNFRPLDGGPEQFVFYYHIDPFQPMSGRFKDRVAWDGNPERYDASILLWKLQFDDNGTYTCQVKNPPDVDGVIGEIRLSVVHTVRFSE

human Eva1 protein [3] = biological target: T5, human Eva1 protein (human, UniProt O60487 27-150, limits assumed); test: SPR (Biacore), antibody captured by anti-mouse IgG, Eva1 flowed
T5 construct: Soluble analyte in the SPR work and partner in the crystal; it calls it 'the antigen, that is, the Eva1 protein'; also called human-derived Eva1 protein; hEva1
T5 sequence: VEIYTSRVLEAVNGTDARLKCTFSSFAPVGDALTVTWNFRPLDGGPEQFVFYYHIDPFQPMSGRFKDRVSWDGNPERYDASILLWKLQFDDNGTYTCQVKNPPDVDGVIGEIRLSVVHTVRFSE
Text: (§1) To select hybridomas for producing antibodies having a higher antigen affinity from the 28 hybridomas, a surface plasmon resonance assay system Biacore was used to calculate the KD value and so forth of each antibody (hereinafter also referred to as “candidate antibody”). Concretely, first, an antibody capable of capturing mouse IgG was immobilized on a dextran-coated sensor chip (CMS, manufactured by GE health care). Then, this antibody captured each candidate antibody on the sensor chip. Subsequently, the antigen, that is, the Eva1 protein was flowed. Note that, in flowing the antigen, a solution of 10 mM-Tris-HCl (pH 7.5), 150 mM-NaCl, and 3 mM-EDTA (pH 8.0) was used. Moreover, as a solution for dissociating the antigen from the candidate antibody (captured candidate-antibody resuscitation solution), a 10 mM glycine solution (pH 1.7) was used. Thus, using these solutions, the binding reaction and the dissociation reaction between each candidate antibody and the antigen were detected with Biacore, and analyzed using the attached software.

human Eva1 protein [4] = biological target: T5, human Eva1 protein; test: SPR (Biacore), as for the mouse antibodies
Text: as §1
Further, the binding reaction and the dissociation reaction between the B2E5-48 chimeric antibody and the antigen were detected with Biacore as in the case of the mouse antibodies.

[5] = biological target: T6, human Eva1 mutant (A43V, S96V, Q85R) (human, UniProt O60487 27-150, limits assumed); test: SPR
T6 construct: Human residues replaced by the mouse ones
T6 chain: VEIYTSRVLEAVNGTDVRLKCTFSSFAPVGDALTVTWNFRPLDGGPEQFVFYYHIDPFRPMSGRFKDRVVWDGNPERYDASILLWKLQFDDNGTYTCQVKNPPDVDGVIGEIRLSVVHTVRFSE

[6] = biological target: T7, human Eva1 mutant (R33G, V34A, V134L, I135V, E137T) (human, UniProt O60487 27-150, limits assumed); test: SPR
T7 construct: Human residues replaced by the mouse ones
T7 chain: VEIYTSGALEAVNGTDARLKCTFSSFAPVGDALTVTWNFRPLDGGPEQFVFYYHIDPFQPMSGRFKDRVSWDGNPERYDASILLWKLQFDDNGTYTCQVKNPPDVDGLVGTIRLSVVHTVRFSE

[7] = biological target: T8, human Eva1 mutant (L68R, P72R) (human, UniProt O60487 27-150, limits assumed); test: SPR
T8 construct: Human residues replaced by the mouse ones; also called (L68R and P72R) double mutant
T8 chain: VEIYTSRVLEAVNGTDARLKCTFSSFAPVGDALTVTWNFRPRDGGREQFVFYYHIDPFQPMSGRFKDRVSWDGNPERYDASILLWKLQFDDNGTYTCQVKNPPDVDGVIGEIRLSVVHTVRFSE

human Eva1 mutant (I81M) = biological target: T9, human Eva1 mutant (I81M) (human, UniProt O60487 27-150, limits assumed); test: SPR
T9 construct: Human residue replaced by the mouse one
T9 chain: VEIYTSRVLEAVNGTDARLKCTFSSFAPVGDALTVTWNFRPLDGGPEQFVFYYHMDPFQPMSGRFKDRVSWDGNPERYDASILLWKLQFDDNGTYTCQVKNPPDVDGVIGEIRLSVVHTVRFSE

human Eva1 L68R mutant = biological target: T10, human Eva1 L68R mutant (human, UniProt O60487 27-150, limits assumed); test: SPR
T10 chain: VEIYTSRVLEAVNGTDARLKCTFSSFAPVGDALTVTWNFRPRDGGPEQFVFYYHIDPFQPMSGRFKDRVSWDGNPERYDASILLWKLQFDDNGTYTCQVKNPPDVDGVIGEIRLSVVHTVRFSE

human Eva1 P72R mutant = biological target: T11, human Eva1 P72R mutant (human, UniProt O60487 27-150, limits assumed); test: SPR
T11 chain: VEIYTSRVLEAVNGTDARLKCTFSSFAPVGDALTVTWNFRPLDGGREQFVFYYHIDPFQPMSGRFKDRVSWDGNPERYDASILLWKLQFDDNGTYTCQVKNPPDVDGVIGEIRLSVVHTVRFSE

mouse Eva1 protein = biological target: T12, mouse Eva1 protein (mouse, UniProt O70255 27-150, limits assumed); test: SPR
T12 construct: Used in SPR; also called mouse-derived Eva1 protein; mEva1
T12 sequence: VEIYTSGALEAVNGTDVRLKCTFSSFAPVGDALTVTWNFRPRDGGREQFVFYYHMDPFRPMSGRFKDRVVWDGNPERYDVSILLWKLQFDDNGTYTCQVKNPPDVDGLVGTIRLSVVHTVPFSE

human Eva1 protein [8] = biological target: T5, human Eva1 protein; test: SPR
human Eva1 Y104A mutant = biological target: T13, human Eva1 Y104A mutant (human, UniProt O60487 27-150, limits assumed); test: SPR with alanine mutants
T13 chain: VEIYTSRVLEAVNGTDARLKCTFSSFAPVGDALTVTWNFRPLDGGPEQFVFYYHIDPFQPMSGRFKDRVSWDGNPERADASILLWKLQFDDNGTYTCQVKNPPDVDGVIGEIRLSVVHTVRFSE

B1: A5D11-10 mouse antibody (antibody, V domains shown)
VH: EVQLKESGPGLVQPSQSLSITCTVSGFSLTRYGVHWVRQSPGKGLEWLGVIWSGGSTDYNAAFISRLSISKDNSKSQVFFKMNSLQANDTAIYYCARNGYDGGYAMDYWGQGTSVTVSS
VL: DIQMTQTTSSLSASLGDRVTISCRASQDISNYLNWYQQKPDGTVKLLIYYTSRLHSGVPSRFSGSGSRIDYSLTISNLEQEDFATYFCQQSDTLPPWTFGGGTKLEIK
notes: Mouse monoclonal from a hybridoma; also called A5D11-10 antibody
- binding result (human Eva1 Y30A mutant): no binding
- fold increase of KD against wild type human Eva1 [1]: ~25 fold
- fold increase of KD against wild type human Eva1 [2]: ~25 fold
- binding result (human Eva1 S96A mutant): binds
- Kd (human Eva1 protein [3]): 5.83 nM
- koff (human Eva1 protein [3]): 0.00212 s⁻¹
- kon (human Eva1 protein [3]): 364000 M⁻¹ s⁻¹

B3: B2E5-48 mouse antibody (antibody, mouse IgG2b, V domains shown)
VH: QVQLQQPGAELVKPGASVKLSCKASGYTFTNYWMHWVKLRPGQGFEWIGEINPTNGGTDYNEKFKRKATLTVDKSSSTAYMQLSSLTSEDSAVYYCTIYTTALDYWGQGTTLTVSS
VL: QIVLTQSPALMSASPGERVTLTCSASSSVGYMYWYQQKPGSSPKPWIYVTSNLASGVPARFSGSGSGTSYSLTISSMEAEDAATYYCQQWSSNPPTFGAGTKLELK
notes: Mouse monoclonal from a hybridoma; also called B2E5-48 antibody
- binding result [5]: binds
- binding result [6]: binds
- binding result [7]: no binding
- binding result (human Eva1 mutant (I81M)): binds
- binding result (human Eva1 L68R mutant): binds
- binding result (human Eva1 P72R mutant): no binding
- binding result (mouse Eva1 protein): no binding
- Kd (human Eva1 protein [3]): 11.7 nM
- koff (human Eva1 protein [3]): 0.00808 s⁻¹
- kon (human Eva1 protein [3]): 689000 M⁻¹ s⁻¹

The remaining lines, values ahead:

- Kd (human Eva1 protein [4]): 15.2 nM
- koff (human Eva1 protein [4]): 0.00747 s⁻¹
- kon (human Eva1 protein [4]): 490000 M⁻¹ s⁻¹
B2: B2E5-48 chimeric antibody (antibody, V domains shown)
VH: QVQLQQPGAELVKPGASVKLSCKASGYTFTNYWMHWVKLRPGQGFEWIGEINPTNGGTDYNEKFKRKATLTVDKSSSTAYMQLSSLTSEDSAVYYCTIYTTALDYWGQGTTLTVSS
VL: QIVLTQSPALMSASPGERVTLTCSASSSVGYMYWYQQKPGSSPKPWIYVTSNLASGVPARFSGSGSGTSYSLTISSMEAEDAATYYCQQWSSNPPTFGAGTKLELK

- KD for human Eva1 against KD for mouse Eva1 (human Eva1 protein [8]): ~0.1
- binding result (human Eva1 Y104A mutant): binds
- Kd (human Eva1 protein [3]): 9.1 nM
- koff (human Eva1 protein [3]): 0.00831 s⁻¹
- kon (human Eva1 protein [3]): 918000 M⁻¹ s⁻¹
B4: C3 mouse antibody (antibody, mouse IgG1, V domains shown)
VH: EVKLVESGGGLVQPGGSLKLSCAASGFTFSSYTMSWVRQTPEKRLEWVAYITTGAGRTYYPDTVKGRFTISRDNAKNTLYLQMSSLKSEDTAMYYCARHRGDYWGQGTSVTVSS
VL: SIVMTQTPKFLLVSAGDRVTITCKASQSVSNDVAWYQQKPGQSPKLLIYYASNRFTGVPDRFTGSGYGTDFTFTISTVQAEDLAVYFCQQDYSSPWTFGGGTKLEIK
notes: Mouse monoclonal from a hybridoma; also called C3 antibody
